Experimental data published in IntAct's records for PubMed 20010802.

Biological target: mlp3a_human MAP1LC3A (UniProt Q9H492)

Substance: BCL2/adenovirus E1B 19 kDa protein-interacting protein 3-like (Mus musculus), Q9Z2F7 L38A
- effect of a mutation on the interaction: disrupting interaction
